Tests used:
[1] = molecular target: HLA-B*15:17; assay: IEDB peptide-MHC binding, purified MHC/competitive/fluorescence; filed as Kd, often an IC50 or EC50 that approximates it; ≥ and ≤ were set here for values at or beyond the usual limits of such assays
[2] = molecular target: HLA-A*02:01; assay: as above
[3] = molecular target: HLA-B*27:05; assay: as above; settings: source organism: Burkholderia mallei NCTC 10229
[4] = molecular target: HLA-A*68:02; assay: as above
[5] = molecular target: HLA-B*48:01; assay: IEDB peptide-MHC binding, purified MHC/direct/fluorescence; filed as Kd, often an IC50 or EC50 that approximates it; ≥ and ≤ were set here for values at or beyond the usual limits of such assays
[6] = molecular target: HLA-B*07:02; assay: as above
[7] = molecular target: HLA-A*11:01; assay: as above
[8] = molecular target: HLA-B*46:01; assay: as above
[9] = molecular target: HLA-B*08:02; assay: as above
[10] = molecular target: HLA-B*08:01; assay: as above
[11] = molecular target: HLA-A*26:03; assay: as above
[12] = molecular target: HLA-A*26:02; assay: as above
[13] = molecular target: HLA-B*57:01; assay: as above
[14] = molecular target: HLA-B*40:01; assay: as above
[15] = molecular target: HLA-A*26:01; assay: as above
[16] = molecular target: HLA-A*31:01; assay: as above
[17] = molecular target: HLA-A*01:01; assay: as above
[18] = molecular target: HLA-B*18:01; assay: as above
[19] = molecular target: HLA-B*58:01; assay: as above
[20] = molecular target: HLA-A*03:01; assay: as above
[21] = molecular target: HLA-B*15:01; assay: as above; settings: source organism: Burkholderia mallei
[22] = molecular target: HLA-B*57:01; assay: IEDB peptide-MHC binding, purified MHC/competitive/fluorescence; filed as Kd, often an IC50 or EC50 that approximates it; ≥ and ≤ were set here for values at or beyond the usual limits of such assays; settings: source organism: Giardia lamblia ATCC 50803
[23] = molecular target: HLA-B*15:01; assay: as above
[24] = molecular target: HLA-B*27:05; assay: IEDB peptide-MHC binding, purified MHC/direct/fluorescence; filed as Kd, often an IC50 or EC50 that approximates it; ≥ and ≤ were set here for values at or beyond the usual limits of such assays
[25] = molecular target: HLA-B*08:03; assay: as above
[26] = molecular target: HLA-A*69:01; assay: as above
[27] = molecular target: HLA-A*02:06; assay: IEDB peptide-MHC binding, purified MHC/competitive/fluorescence; filed as Kd, often an IC50 or EC50 that approximates it; ≥ and ≤ were set here for values at or beyond the usual limits of such assays
[28] = molecular target: HLA-A*26:03; assay: as above; settings: source organism: Variola virus
[29] = molecular target: HLA-A*26:02; assay: as above
[30] = molecular target: HLA-B*18:01; assay: as above
[31] = molecular target: HLA-A*24:03; assay: IEDB peptide-MHC binding, purified MHC/direct/fluorescence; filed as Kd, often an IC50 or EC50 that approximates it; ≥ and ≤ were set here for values at or beyond the usual limits of such assays; settings: source organism: Cowpox virus
[32] = molecular target: HLA-A*02:01; assay: as above
[33] = molecular target: HLA-A*68:02; assay: as above
[34] = molecular target: HLA-B*39:01; assay: IEDB peptide-MHC binding, purified MHC/competitive/fluorescence; filed as Kd, often an IC50 or EC50 that approximates it; ≥ and ≤ were set here for values at or beyond the usual limits of such assays; settings: source organism: Orthomarburgvirus marburgense
[35] = molecular target: HLA-B*15:17; assay: IEDB peptide-MHC binding, purified MHC/direct/fluorescence; filed as Kd, often an IC50 or EC50 that approximates it; ≥ and ≤ were set here for values at or beyond the usual limits of such assays; settings: source organism: Orthomarburgvirus marburgense
[36] = molecular target: HLA-B*44:02; assay: as above; settings: source organism: Orthomarburgvirus marburgense
[37] = molecular target: HLA-A*11:01; assay: IEDB peptide-MHC binding, purified MHC/competitive/fluorescence; filed as Kd, often an IC50 or EC50 that approximates it; ≥ and ≤ were set here for values at or beyond the usual limits of such assays; settings: source organism: Human immunodeficiency virus 1
[38] = molecular target: HLA-A*02:03; assay: as above; settings: source organism: Human immunodeficiency virus 1
[39] = molecular target: HLA-A*30:01; assay: as above; settings: source organism: Human immunodeficiency virus 1
[40] = molecular target: HLA-A*01:01; assay: as above; settings: source organism: Human immunodeficiency virus 1
[41] = molecular target: HLA-A*69:01; assay: as above; settings: source organism: Human immunodeficiency virus 1
[42] = source organism: Burkholderia mallei NCTC 10229
[43] = source organism: Burkholderia mallei
[44] = source organism: Burkholderia mallei ATCC 23344
[45] = source organism: Giardia lamblia ATCC 50803
[46] = source organism: Giardia intestinalis
[47] = source organism: Orthomarburgvirus marburgense
[48] = source organism: Ravn virus - Ravn, Kenya, 1987
[49] = source organism: Human immunodeficiency virus 1

In the case of RRSLLAHVR, the Kd [1, 42] is reported as no less than 20 µM, the Kd [2, 42] is reported as 0.034 µM and the Kd [3] is reported as 0.0066 µM. For the same sequence, the Kd [4, 42] was 2.92 µM, the Kd [5, 43] was no less than 20 µM and the Kd [6, 43] was no less than 20 µM. The Kd [7, 43] was 1.13 µM, the Kd [8, 43] was no less than 20 µM and the Kd [9, 44] was no less than 20 µM. The Kd [10, 44] was no less than 20 µM, the Kd [11, 44] was no less than 20 µM and the Kd [12, 44] was no less than 20 µM. The Kd [13, 43] was no less than 20 µM, the Kd [14, 43] was no less than 20 µM and the Kd [15, 44] was no less than 20 µM. The Kd [16, 43] was 5.4 µM, the Kd [17, 43] was no less than 20 µM and the Kd [18, 43] was no less than 20 µM. The Kd [19, 43] was no less than 20 µM, the Kd [20, 43] was 1.18 µM and the Kd [21] was no less than 20 µM.

Work on RTMPLSRFT yielded a Kd [1, 45] of no less than 20 µM, a Kd [2, 45] of no less than 20 µM and a Kd [22] of 0.375 µM. The Kd [4, 45] was 4.56 µM, the Kd [23, 45] was 14 µM and the Kd [5, 46] was no less than 20 µM. For the same sequence, the Kd [6, 46] was no less than 20 µM, the Kd [7, 46] was 2.68 µM and the Kd [8, 46] was no less than 20 µM. For the same sequence, the Kd [9, 45] was no less than 20 µM, the Kd [24, 46] was no less than 20 µM and the Kd [10, 45] was no less than 20 µM. For the same sequence, the Kd [11, 45] was no less than 20 µM, the Kd [14, 46] was no less than 20 µM and the Kd [15, 45] was no less than 20 µM. For the same sequence, the Kd [16, 46] was 12.5 µM, the Kd [17, 46] was no less than 20 µM and the Kd [18, 46] was no less than 20 µM. It also gave a Kd [19, 46] of no less than 20 µM, a Kd [25, 45] of no less than 20 µM and a Kd [20, 46] of no less than 20 µM. For the same sequence, the Kd [26, 46] was no less than 20 µM.

VYSFDESSF gave a Kd ([27]; source organism: Variola virus) of no less than 20 µM, a Kd ([1]; source organism: Variola virus) of 2.1 µM and a Kd [28] of 1.42 µM. It also gave a Kd ([29]; source organism: Variola virus) of 0.192 µM, a Kd ([30]; source organism: Variola virus) of 0.379 µM and a Kd ([23]; source organism: Variola virus) of 2.28 µM. For the same sequence, the Kd [31] was 0.275 µM, the Kd ([6]; source organism: Cowpox virus) was no less than 20 µM and the Kd ([7]; source organism: Cowpox virus) was no less than 20 µM. It also gave a Kd ([32]; source organism: Cowpox virus) of no less than 20 µM, a Kd ([13]; source organism: Cowpox virus) of no less than 20 µM and a Kd ([16]; source organism: Cowpox virus) of no less than 20 µM. The Kd ([17]; source organism: Cowpox virus) was no less than 20 µM, the Kd ([33]; source organism: Cowpox virus) was no less than 20 µM and the Kd ([19]; source organism: Cowpox virus) was no less than 20 µM. It also gave a Kd ([26]; source organism: Cowpox virus) of no less than 20 µM.

For LEHGLYPQL, the Kd [27, 47] was no less than 20 µM, the Kd [34] was 0.931 µM and the Kd [5, 47] was 0.634 µM. The Kd [35] was no less than 20 µM, the Kd [6, 47] was no less than 20 µM and the Kd [7, 47] was no less than 20 µM. It also gave a Kd [9, 48] of no less than 20 µM, a Kd [32, 47] of no less than 20 µM and a Kd [24, 47] of no less than 20 µM. It also gave a Kd [11, 48] of no less than 20 µM, a Kd [12, 48] of no less than 20 µM and a Kd [13, 47] of no less than 20 µM. It also gave a Kd [14, 47] of 0.017 µM, a Kd [16, 47] of no less than 20 µM and a Kd [17, 47] of no less than 20 µM. The Kd [33, 47] was no less than 20 µM, the Kd [18, 47] was 0.034 µM and the Kd [19, 47] was no less than 20 µM. For the same sequence, the Kd [25, 48] was no less than 20 µM, the Kd [36] was no less than 5 µM and the Kd [26, 47] was no less than 20 µM.

STKAACPTM gave a Kd ([12]; source organism: West Nile virus strain PTRoxo) of 1.04 µM and a Kd ([15]; source organism: West Nile virus) of 15.7 µM.

With RSLYNTVATLY the Kd [27, 49] was no less than 20 µM, the Kd [1, 49] was 0.0007 µM and the Kd [37] was no less than 20 µM. For the same sequence, the Kd [38] was no less than 20 µM, the Kd [39] was no less than 20 µM and the Kd [29, 49] was no less than 20 µM. For the same sequence, the Kd [40] was no less than 20 µM, the Kd [30, 49] was 0.0763 µM and the Kd [41] was 16.6 µM.

Reference: the Immune Epitope Database (IEDB)
